Source: patent publication US20180141977A1 (NORWEGIAN UNIVERSITY OF SCIENCE AND TECHNOLOGY NTNU, published 2018)

Target: T1, β-clamp protein from E. coli (E. coli, UniProt P0A988 1-366, labeled with a fluorescent molecule (site not stated))
T1 construct: Fluorescently labelled for microscale thermophoresis; also called sliding clamp
Assay: microscale thermophoresis, fluorescently labelled β-clamp, peptide titrated (table cell the 66th table, row 38, column 4 prints 'Nd')

T1 sequence (P0A988 whole entry): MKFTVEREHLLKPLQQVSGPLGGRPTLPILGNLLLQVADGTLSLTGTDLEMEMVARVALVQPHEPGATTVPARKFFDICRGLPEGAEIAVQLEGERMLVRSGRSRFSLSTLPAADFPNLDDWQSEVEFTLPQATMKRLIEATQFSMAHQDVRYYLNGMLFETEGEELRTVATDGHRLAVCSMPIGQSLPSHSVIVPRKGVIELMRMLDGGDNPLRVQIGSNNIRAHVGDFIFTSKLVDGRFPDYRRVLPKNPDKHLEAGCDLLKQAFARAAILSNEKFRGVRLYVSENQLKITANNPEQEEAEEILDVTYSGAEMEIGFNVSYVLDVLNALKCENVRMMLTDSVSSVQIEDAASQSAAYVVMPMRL

B1: R11 peptide (SEQ ID NO: 337) (peptide)
peptide: RRRRRRRRRRR
notes: Control peptide without APIM motif; also called cell penetrating peptide
Question: Does B1 bind?
Answer: no binding
